{"source": "paper doi:10.1101/2022.07.14.499993", "about": "(bioRxiv, 2022)", "binders": {"B1": {"name": "Interleukin-11 (amino acids 23-199), the interleukin part of the IL-11/IL-11Rα fusion (domain or fragment, UniProt P20809 23-199, looked up)", "chain": "GPPPGPPRVSPDPRAELDSTVLLTRSLLADTRQLAAQLRDKFPADGDHNLDSLPTLAMSAGALGALQLPGVLTRLRADLLSYLRHVQWLRRAGGSSLKTLEPELGTLQARLDRLLRRLQLLMSRLALPQPPPDPPAPPLAPPSSAWGGIRAAHAILGGLHLTLDWAVRGLLLLKTRL"}, "B2": {"name": "human glycoprotein 130 (amino acids 24-618) (receptor, UniProt P40189 24-618, looked up)", "chain": "LLDPCGYISPESPVVQLHSNFTAVCVLKEKCMDYFHVNANYIVWKTNHFTIPKEQYTIINRTASSVTFTDIASLNIQLTCNILTFGQLEQNVYGITIISGLPPEKPKNLSCIVNEGKKMRCEWDGGRETHLETNFTLKSEWATHKFADCKAKRDTPTSCTVDYSTVYFVNIEVWVEAENALGKVTSDHINFDPVYKVKPNPPHNLSVINSEELSSILKLTWTNPSIKSVIILKYNIQYRTKDASTWSQIPPEDTASTRSSFTVQDLKPFTEYVFRIRCMKEDGKGYWSDWSEEASGITYEDRPSKAPSFWYKIDPSHTQGYRTVQLVWKTLPPFEANGKILDYEVTLTRWKSHLQNYTVNATKLTVNLTNDRYLATLTVRNLVGKSDAAVLTIPACDFQATHPVMDLKAFPKDNMLWVEWTTPRESVKKYILEWCVLSDKAPCITDWQQEDGTVHRTYLRGNLAESKCYLITVTPVYADGPGSPESIKAYLKQAPPSKGPTVRTKKVGKNEAVLEWDQLPVDVQNGFIRNYTIFYRTIIGNETAVNVDSSHTEYTLSSLTSDTLYMVRMAAYTDEGGKDGPEFTFTTPKFAQGEI"}, "B3": {"name": "Interleukin-11 (ligand, UniProt P20809 22-199, looked up)", "chain": "PGPPPGPPRVSPDPRAELDSTVLLTRSLLADTRQLAAQLRDKFPADGDHNLDSLPTLAMSAGALGALQLPGVLTRLRADLLSYLRHVQWLRRAGGSSLKTLEPELGTLQARLDRLLRRLQLLMSRLALPQPPPDPPAPPLAPPSSAWGGIRAAHAILGGLHLTLDWAVRGLLLLKTRL"}}, "key": {"[1]": {"molecular_target": "T1, IL-11 receptor α (amino acids 113-318), the receptor part of the IL-11/IL-11Rα fusion (UniProt Q14626 113-318)", "T1 sequence (looked up)": "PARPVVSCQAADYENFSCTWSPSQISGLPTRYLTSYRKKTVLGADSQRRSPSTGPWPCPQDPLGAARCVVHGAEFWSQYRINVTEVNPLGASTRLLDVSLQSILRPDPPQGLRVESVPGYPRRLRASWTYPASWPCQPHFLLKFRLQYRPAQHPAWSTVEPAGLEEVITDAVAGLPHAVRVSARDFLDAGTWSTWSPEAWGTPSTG", "experiment": "HDX-MS"}, "[2]": {"molecular_target": "T2, IL-11/IL-11Rα fusion (interleukin and receptor connected with a (GGGGS)3 linker) (UniProt Q14626 113-318; P20809 23-199)", "T2 chain": "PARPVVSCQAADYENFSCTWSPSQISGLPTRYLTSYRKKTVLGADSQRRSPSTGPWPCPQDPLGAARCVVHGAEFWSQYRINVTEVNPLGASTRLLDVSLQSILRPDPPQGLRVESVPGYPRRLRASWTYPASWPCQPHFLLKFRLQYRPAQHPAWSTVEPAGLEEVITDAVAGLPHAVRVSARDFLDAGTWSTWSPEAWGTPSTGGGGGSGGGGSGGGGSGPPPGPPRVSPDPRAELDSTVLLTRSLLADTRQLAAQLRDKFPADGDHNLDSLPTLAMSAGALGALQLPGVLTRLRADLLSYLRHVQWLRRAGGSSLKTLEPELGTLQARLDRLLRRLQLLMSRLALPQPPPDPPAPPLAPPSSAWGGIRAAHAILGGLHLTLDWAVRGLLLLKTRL", "experiment": "ITC"}, "[3]": {"molecular_target": "IL-6/IL-6Rα fusion (interleukin and receptor connected with a (GGGGS)3 linker) (UniProt P08887 114-320; P05231 30-212)", "experiment": "ITC"}, "[4]": {"molecular_target": "T3, IL-11 receptor α, fusion protein with the Fc domain of human IgG1 (UniProt Q14626 24-370)", "T3 sequence (looked up)": "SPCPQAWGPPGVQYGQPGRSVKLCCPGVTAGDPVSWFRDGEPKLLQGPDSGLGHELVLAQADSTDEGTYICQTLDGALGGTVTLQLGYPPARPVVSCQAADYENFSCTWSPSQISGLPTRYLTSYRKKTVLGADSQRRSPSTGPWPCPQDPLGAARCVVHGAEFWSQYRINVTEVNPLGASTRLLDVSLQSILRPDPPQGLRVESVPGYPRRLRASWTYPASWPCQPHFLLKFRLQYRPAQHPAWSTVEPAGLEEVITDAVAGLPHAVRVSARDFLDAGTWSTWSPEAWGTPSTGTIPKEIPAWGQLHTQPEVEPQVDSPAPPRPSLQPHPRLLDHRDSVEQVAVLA", "experiment": "SPR"}}, "data": [{"binder": "B1", "values": [{"measurement": "binding result", "setting": "[1]", "value": "binds"}]}, {"binder": "B2", "values": [{"measurement": "dH", "setting": "[2]", "value": "-12.2 ± 0.239", "unit": "kcal/mol"}, {"measurement": "dH", "setting": "[3]", "value": "-6.69 ± 0.239", "unit": "kcal/mol"}]}, {"binder": "B3", "values": [{"measurement": "dH", "setting": "[4]", "value": "11.2 ± 0.717", "unit": "kcal/mol"}]}]}
